These results are taken from the supplement of paper PMC9170038.

This data set has as its system MS2 coat protein. Kind of data set: apparent KD of MS2 coat protein; designed switch direction (-1 OFF switch, 1 ON switch): -1; higher = weaker reporter binding. A digest of the protocol:
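An oligonucleotide input, 200 uM small-molecule ligand, or no input was present during titration of SNAP-549-labelled MS2 coat protein, which was doubled from 0.7 or 1.5 nM to 3 µM. Designed RNA switches had been transcribed on Illumina chips by stalled E. coli RNA polymerase. Apparent KD per design is the median over clusters of curves fitted to normalised cluster fluorescence.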

Where [1] appears, read: Eterna round: R95, input ligand: FMN 200 uM.
Setting [2] is: Eterna round: R95, input ligand: microRNA oligo, concentration not stated.
[3] abbreviates: Eterna round: R95, input ligand: none.
The mark [4] stands for this setting: input ligand: microRNA oligo, concentration not stated.

For the sequence “GGUUGGCGAGGAUAUACAUGAGGAUCACCCAUGUGAGAGAAAACAGUGAGGAAGAAAAGUAGAAGGCGCUGACG [salish99_ex3_r3_024] (puzzle: Exclusion 3)”, the “apparent KD of MS2 coat protein” value reads like this: under setting [1], 466 nM; under setting [2], 52.6 nM; under setting [3], 48 nM.
Turning to “GGUUGGCGAGGAUAUACAUGAGGAUCACCCAUGUGAGAGAUACUAGUGAGGUCGAUUAGUAGAAGGCGCUGACG [JL-ex3-2.01 salish99 mod] (puzzle: Exclusion 3)”, the “apparent KD of MS2 coat protein” value by setting is: under setting [1], 174 nM; under setting [2], 31.1 nM; under setting [3], 32.2 nM.
For the sequence “GUAAAAUAAGCUUAUUUACACAUGAGGAUCACCCAUGUAUUGGACGGACUCCUGACCUCAAUUAUAUGCUCGUAUCG [Eternabot (L1) Solution 41] (Eterna round: R97, puzzle: Sensor, turn-off variant 1)”, the “apparent KD of MS2 coat protein” value (input ligand: FMN 200 uM) was 77.6 nM and the “apparent KD of MS2 coat protein” value (input ligand: none) was found to be 79.5 nM.
For “GUAAAGGUAGGAUAUACGAAGAAAAAGGGUAGAAGAAGAACACAUGAGGAUCACCCAUGUAGAAGGACCAAAUG [Mat - Exclusion 2 - Mod of my Tesla design - D4] (puzzle: Exclusion 2)”, the “apparent KD of MS2 coat protein” value under setting [1] was 63.9 nM, the “apparent KD of MS2 coat protein” value under setting [2] was determined as 24.8 nM and the “apparent KD of MS2 coat protein” value under setting [3] turned out to be 28.5 nM.
As for “GUAAUAGUGGUUAGGAUAUGCGAUCGAAAAUAGGUGCAGAAGGAACAUGAGGAUCACCCAUGUGCCUCCUCAAU [Eternabot (L1) Solution 6] (Eterna round: R97, puzzle: Brourd's mod of Exclusion 4)”, the “apparent KD of MS2 coat protein” value is, setting by setting: (input ligand: FMN 200 uM) 24.2 nM; (input ligand: none) 15.6 nM.
As to “GUAAUUAAUGUAGGAUAUGCAAGGCGAACCUAAGCAGAAGGACAUGAGGAUCACCCAUGUAUUGCGGUCUGCGUUCUGAUCGCU [salish99_ExNG1_r4_010] (Eterna round: R96, puzzle: Exclusion NG 1)”, the “apparent KD of MS2 coat protein” value was 19.1 nM (input ligand: FMN 200 uM), 8.25 nM under setting [4] and 17 nM (input ligand: none).
Regarding “GUACUCGGAUGACAGUCCGACAUGAGGAUCACCCAUGUUUCAUUAAGGUCGUUGCUCGUCAAACAUCACUCAACCAG [Eternabot (L1) Solution 35] (Eterna round: R97, puzzle: Sensor, turn-off variant 1)”, the “apparent KD of MS2 coat protein” value came out at 43.2 nM (input ligand: FMN 200 uM) and 51.5 nM (input ligand: none).
As to “GUACUGAAGCAUAGCUUUAGUCGUACAUGAGGAUCACCCAUGUAGGAUAUGGUAGGCAUAGCUUACUAGAAGGAUAGAGUGAUC [Mat - Exclusion NG 3 - Mod of JL - D72] (Eterna round: R96, puzzle: Exclusion NG 3)”, the “apparent KD of MS2 coat protein” value is, setting by setting: (input ligand: FMN 200 uM) 440 nM; under setting [4], 71.6 nM; (input ligand: none) 137 nM.
With “GUACUGAAGCUUUGCUUUAAUCGUACAUGAGGAUCACCCAUGUAGGAUAUGGUAGGCUUUGCUUACCAGAAGGACAGAGUGAUC [JL EXNG3 1.24] (Eterna round: R96, puzzle: Exclusion NG 3)”, the “apparent KD of MS2 coat protein” value turned out to be 217 nM (input ligand: FMN 200 uM), 124 nM under setting [4] and 136 nM (input ligand: none).
On to “GUACUGACAGGAUAUACAUGAGGAUCACCCAUGUGCCCUUAUAGAUGCAAAGCAUCUAGUAGAAGGGUCUGUAC [Omei Ex3 Model Bachelor's Dilema v24] (Eterna round: R97, puzzle: Exclusion 3)”, for which the “apparent KD of MS2 coat protein” value reads like this: (input ligand: FMN 200 uM) 32.8 nM; (input ligand: none) 26.9 nM.
Regarding “GUAGAGACAGGAUAUACAUGAGGAUCACCCAUGUGAGGAGGAAAAGAGAGGAGAAAGAGUAGAAGGGUCGAAAG [JR_Exclu3_Sub030] (puzzle: Exclusion 3)”, the “apparent KD of MS2 coat protein” value amounted to 41.4 nM under setting [1], 35.7 nM under setting [2] and 43 nM under setting [3].
Consider “GUAGAGUCAGGAUAUACAAGAUCGAAAGAUCAAAGGUCCAUACAUGAGGAUCACCCAUGUAGAAGGGACUCUAC [Eli x2 4.09] (Eterna round: R97, puzzle: Exclusion 2)”, for which the “apparent KD of MS2 coat protein” value worked out at 36.4 nM (input ligand: FMN 200 uM) and 24.5 nM (input ligand: none).
For “GUAGAGUCAGGAUAUACGAGAUCGAAAGAUCGGCGAUCCAAACAUGAGGAUCACCCAUGUAGAAGGGACUCUAC [Eli x2 4.004] (Eterna round: R97, puzzle: Exclusion 2)” the same measures were 579 nM and 41 nM.
For “GUAGAGUCAGGAUAUACGAGAUCGAAAGAUCGGCGGUCUGUACAUGAGGAUCACCCAUGUAGAAGGGACUCUAC [ChP 11-04-2015 #6] (puzzle: Exclusion 2)”, the “apparent KD of MS2 coat protein” value under setting [2] amounted to 15.3 nM.
Take “GUAGAGUCAGGAUAUACGCGAUCGAAAGAUCGGUGGUCCUUACAUGAGGAUCACCCAUGUAGAAGGGACUCUAC [Omei mod 13 to Eli's favorate candidate (ch.parushev)] (Eterna round: R97, puzzle: Exclusion 2)”: the “apparent KD of MS2 coat protein” value is, setting by setting: (input ligand: FMN 200 uM) 65.9 nM; (input ligand: none) 580 nM.
For “GUAGAGUGAGGAUAUACAAGAUCGAUAGAUCGGCGAUCCAUACAUGAGGAUCACCCAUGUAGAAGGCACUCUAC [Mat - Exclusion 2 - Eli Mod - D7] (Eterna round: R97, puzzle: Exclusion 2)”, the “apparent KD of MS2 coat protein” value (input ligand: FMN 200 uM) is 218 nM and the “apparent KD of MS2 coat protein” value (input ligand: none) was determined as 83.5 nM.
Consider “GUAGAGUGAGGAUAUACGAGAUCGAAAGAUCAACGAUCCAAACAUGAGGAUCACCCAUGUAGAAGGCACUCUAC [Eli x2 4.008] (Eterna round: R97, puzzle: Exclusion 2)”, for which the “apparent KD of MS2 coat protein” value reads like this: (input ligand: FMN 200 uM) 270 nM; (input ligand: none) 27.1 nM.
For the sequence “GUAUACGAUGAGGAUAUAUGAUAUCAAAGCAUCAUAGAAGGCAUCACAUGAGGAUCACCCAUGUGAUCUUCUUG [Mat - Exclusion 6 - JL Mod - D33] (Eterna round: R97, puzzle: Exclusion 6)”, the “apparent KD of MS2 coat protein” value runs as follows: (input ligand: FMN 200 uM) 141 nM; (input ligand: none) 31.3 nM.
Take “GUAUCGUGAGGAUAUCAUGAUUGACUUAAUUUAUGUCAGCGUGAGAAGGCACAUGAGGAUCACCCAUGUGAUUA [Ex4 - 3 - 6] (puzzle: Exclusion 4)”: under setting [2], the “apparent KD of MS2 coat protein” value turned out to be 20.5 nM.
As to “GUCACAUGGACAUAGGAUCACAUGAGGAUCACCCAUGUGACUAACAAGCUUUUUGCUCGUCUUAUGUCUAUGUGAAA [Stov1/16-A1] (Eterna round: R97, puzzle: Sensor, turn-off variant 1)”, the “apparent KD of MS2 coat protein” value by setting is: (input ligand: FMN 200 uM) 12.8 nM; (input ligand: none) 12 nM.
As to “GUCAGACGAGGAUAUGAUCAAUAAUACAUGAGGAUCACCCAUGUAAUACUGAUCCAUGGAUCAGAAGGCGUCUGAC [E5/5-A4] (Eterna round: R97, puzzle: Exclusion 5)”, the “apparent KD of MS2 coat protein” value (input ligand: FMN 200 uM) came out at 23.4 nM and the “apparent KD of MS2 coat protein” value (input ligand: none) came out at 15.4 nM.
Turning to “GUCAGCUCGUCAGGAUAUACAUCACUGCUUCGGCAGUGUAUUAAGAUCACAUGAGGAUCACCCAUGUAGAAGGGACGAGCUGAU [ENG2/2-B2] (Eterna round: R96, puzzle: Exclusion NG 2)”, the “apparent KD of MS2 coat protein” value was found to be 322 nM (input ligand: FMN 200 uM), 18.4 nM under setting [4] and 25.8 nM (input ligand: none).
With “GUCAGCUCGUCAGGAUAUACAUGAGGAUCACCCAUGUGGUCAAUAGCAGCUUCGGCUGCAAUAAUGUAGAAGGGACGAGCUGAC [ENG2/8-E] (Eterna round: R96, puzzle: Exclusion NG 2)”, the “apparent KD of MS2 coat protein” value (input ligand: FMN 200 uM) stood at 115 nM, the “apparent KD of MS2 coat protein” value under setting [4] amounted to 301 nM and the “apparent KD of MS2 coat protein” value (input ligand: none) was determined as 756 nM.
Turning to “GUCAGCUCGUGAGGAUAUACAUGAGGAUCACCCAUGUGGUCAUUAGCAGCUUCGGCUGCAUUAAUGUAGAAGGCACGAGCUGAC [ENG2/8-A1] (Eterna round: R96, puzzle: Exclusion NG 2)”, the “apparent KD of MS2 coat protein” value (input ligand: FMN 200 uM) was determined as 635 nM, the “apparent KD of MS2 coat protein” value under setting [4] came to 690 nM and the “apparent KD of MS2 coat protein” value (input ligand: none) was 1140 nM.
As for “GUCAUCAAACAUGGGUGUAACAUGAGGAUCACCCAUGUUAUCAAGUUUUUUGCUCGUCUUAUAAUAAGUUUGAUGAC [Antenna 13 - Jieux - Sensor, turn-off variant 1] (Eterna round: R97, puzzle: Sensor, turn-off variant 1)”, the “apparent KD of MS2 coat protein” value runs as follows: (input ligand: FMN 200 uM) 87.5 nM; (input ligand: none) 97.6 nM.
For “GUCAUCACACAUGGGAUCAACAUGAGGAUCACCCAUGUUGCCAAGUUUUUUGCACGUCUUAUAAUACGUUUGAUGAG [Mod-Jxe] (Eterna round: R97, puzzle: Sensor, turn-off variant 1)” the same measures were 31.7 nM and 29.9 nM.
As for “GUCAUGAUUGUGAGGAUAUUUCAUAGAUAGAUGUUAGAGAAGGUACAUGAGGAUCACCCAUGUGUGAUCAGACA [Brourd's EX4 #74] (Eterna round: R97, puzzle: Brourd's mod of Exclusion 4)”, the “apparent KD of MS2 coat protein” value runs as follows: (input ligand: FMN 200 uM) 336 nM; (input ligand: none) 478 nM.
For “GUCCUACAUGAGGAUCACCCAUGUGAGGAUAUGGUUUCGCUGGCCGUAGCCAGUGGAACCAGAAGGCGCAUGAU [Mat - Exclusion 1 - JL Mod - D1] (Eterna round: R97, puzzle: Exclusion 1)”, the “apparent KD of MS2 coat protein” value was 106 nM (input ligand: FMN 200 uM) and 25.9 nM (input ligand: none).
As for “GUCGCCAGUGUCAGGAUAUGAUGGCCUCGACGCCGUUAGAAGGGACAUGAGGAUCACCCAUGUAACAAGCGACG [Eternabot (Original) Solution 42] (Eterna round: R97, puzzle: Brourd's mod of Exclusion 4)”, the “apparent KD of MS2 coat protein” value reads like this: (input ligand: FMN 200 uM) 31.3 nM; (input ligand: none) 27.8 nM.
The corresponding values for “GUCGCGUGGGUGUGGGAGGACAUGAGGAUCACCCAUGUGACUACCAAGCUUUUUGCUCCUCUUAGGUCCAUGGGAAG [Random] (Eterna round: R97, puzzle: Sensor, turn-off variant 1)” are 67 nM and 109 nM.
